The text below walks through data of the supplement of paper PMC7125110.

± gives the standard error. Variants at the floor of the assay were thinned out.

Sequences and labels used below:
B1: glmS ribozyme (parent)
chain: AUAAAAGCGCCAGAACUACAGAAAUGUAGUUGACGAGGAGGAGGUUUAUCGAAUUUUCGGCGGAUGCCUCCAAA

One series covers variants of B1. Description: self-cleavage kobs at 2500 uM GlcN6P; higher = faster cleavage; RNA array. To be noted: with glucosamine-6-phosphate. In a few lines:
(§1)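 Glucosamine-6-phosphate (40 μM to 10 mM) in HEPES/KCl/Mg(OAc)2 buffer was flowed over sequenced MiSeq chips, and tiles were imaged over ~14 h. Barcoded ribozyme variants there had been transcribed in situ by E. coli RNA polymerase and were tracked through a hybridised Cy3 probe at 37 °C. One- or two-exponential decay fits to per-tile medians, normalised to baseline and to non-cleaving reference variants, gave kobs. kcat and KM came from weighted Michaelis–Menten fits across concentrations.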
G32U U46A C50U: the “self-cleavage kobs at 2500 uM GlcN6P” value is less than 1e-05 s⁻¹. On to G9U G29U G44A, for which the “self-cleavage kobs at 2500 uM GlcN6P” value is less than 1e-05 s⁻¹. For the variant A36U G59C G63U, the “self-cleavage kobs at 2500 uM GlcN6P” value was less than 1e-05 s⁻¹. As for G7A A33U C61G C70G, the “self-cleavage kobs at 2500 uM GlcN6P” value is less than 1e-05 s⁻¹. Turning to C10A A12U U31G U46C, the “self-cleavage kobs at 2500 uM GlcN6P” value was less than 1e-05 s⁻¹. The same measure, in the same setting: next, G35A G40A G66U: less than 1e-05 s⁻¹; G29C G59U G66C C70A: 0.000112 ± 2.7e-05 s⁻¹; A48G U54G C70U: 0.000276 ± 7.7e-05 s⁻¹. As for A12U G29U G37A U55A, the “self-cleavage kobs at 2500 uM GlcN6P” value came out at 0.000446 ± 9.5e-05 s⁻¹. Turning to G37U G40A G63A, the “self-cleavage kobs at 2500 uM GlcN6P” value is less than 1e-05 s⁻¹. Turning to G41A G44U G66A, the “self-cleavage kobs at 2500 uM GlcN6P” value was less than 1e-05 s⁻¹. Turning to G40C U45G C58U, the “self-cleavage kobs at 2500 uM GlcN6P” value was less than 1e-05 s⁻¹. Still for that read-out and setting: for U45C U65C G66U C68G the value was less than 1e-05 s⁻¹. Turning to U45C U46C C70A, the “self-cleavage kobs at 2500 uM GlcN6P” value amounted to 0.000116 ± 4.4e-05 s⁻¹. On to C11U U47C G62A, for which the “self-cleavage kobs at 2500 uM GlcN6P” value is less than 1e-05 s⁻¹. As to A15G G35C A42U C50G C68A C71U, the “self-cleavage kobs at 2500 uM GlcN6P” value is less than 1e-05 s⁻¹. As to C8A A12C A33U A64G, the “self-cleavage kobs at 2500 uM GlcN6P” value is less than 1e-05 s⁻¹. Regarding G32U U46C C68A C71U, the “self-cleavage kobs at 2500 uM GlcN6P” value was less than 1e-05 s⁻¹. As for A12G G44A C70A, the “self-cleavage kobs at 2500 uM GlcN6P” value is less than 1e-05 s⁻¹. On the same count and under the same terms, next, G13C G37C U45G: less than 1e-05 s⁻¹. As for A42U U57G, the “self-cleavage kobs at 2500 uM GlcN6P” value was less than 1e-05 s⁻¹.

For G7U G35C G43A A48G, the “self-cleavage kobs at 2500 uM GlcN6P” value was less than 1e-05 s⁻¹. Turning to A6G C34A C50U U69A, the “self-cleavage kobs at 2500 uM GlcN6P” value was less than 1e-05 s⁻¹. Regarding C16A C34G C68G, the “self-cleavage kobs at 2500 uM GlcN6P” value was 0.000193 ± 6.5e-05 s⁻¹. As for U45C A52U C68U, the “self-cleavage kobs at 2500 uM GlcN6P” value was less than 1e-05 s⁻¹. For U54A U57A, the “self-cleavage kobs at 2500 uM GlcN6P” value was 0.000102 ± 2.8e-05 s⁻¹.

Take A15G G40A G59U C67G: the “self-cleavage kobs at 2500 uM GlcN6P” value was less than 1e-05 s⁻¹. For the variant A42C U45C A48U C61A, the “self-cleavage kobs at 2500 uM GlcN6P” value was less than 1e-05 s⁻¹. Take G7C C50U A64C C68A: the “self-cleavage kobs at 2500 uM GlcN6P” value was less than 1e-05 s⁻¹. As for G29A U65A C71A, the “self-cleavage kobs at 2500 uM GlcN6P” value was 4.59e-05 ± 1.7e-05 s⁻¹. In the case of A33U G43U U54A G60A, the “self-cleavage kobs at 2500 uM GlcN6P” value was less than 1e-05 s⁻¹. For U45G U56G A64G, the “self-cleavage kobs at 2500 uM GlcN6P” value was 0.00171 ± 0.00054 s⁻¹. A12G G59U G60U U65G: the “self-cleavage kobs at 2500 uM GlcN6P” value was less than 1e-05 s⁻¹. Still for that read-out and setting: for G13A G40C G60A U65A the value was less than 1e-05 s⁻¹; for G29C G37A G43C U69A, less than 1e-05 s⁻¹. On the same count and under the same terms, next, C11G A33U U47G: less than 1e-05 s⁻¹; C34A G35U U55G: less than 1e-05 s⁻¹; G37U A42U U54G U57A C67A: less than 1e-05 s⁻¹.

On to C11U A48C G62U, for which the “self-cleavage kobs at 2500 uM GlcN6P” value was less than 1e-05 s⁻¹.

As for G9C A14G G37U G62C C71A, the “self-cleavage kobs at 2500 uM GlcN6P” value is less than 1e-05 s⁻¹. For C8G G38A A48G U57G, the “self-cleavage kobs at 2500 uM GlcN6P” value is less than 1e-05 s⁻¹.

Take A15G U45G U46C: the “self-cleavage kobs at 2500 uM GlcN6P” value was determined as 0.00283 ± 0.001 s⁻¹. Consider G41C G51C U56A G62A, for which the “self-cleavage kobs at 2500 uM GlcN6P” value was less than 1e-05 s⁻¹. C11G A14G G41A G43C: the “self-cleavage kobs at 2500 uM GlcN6P” value was less than 1e-05 s⁻¹.

Regarding A15U G35U C67G, the “self-cleavage kobs at 2500 uM GlcN6P” value was less than 1e-05 s⁻¹. Turning to C8G G9U A14U A15U A64G C70U, the “self-cleavage kobs at 2500 uM GlcN6P” value was less than 1e-05 s⁻¹. Regarding A14G C58G C71A, the “self-cleavage kobs at 2500 uM GlcN6P” value amounted to 9.06e-05 ± 1.5e-05 s⁻¹.

Regarding C16G C34U A36C, the “self-cleavage kobs at 2500 uM GlcN6P” value is less than 1e-05 s⁻¹. A6C G35C U54A: the “self-cleavage kobs at 2500 uM GlcN6P” value is less than 1e-05 s⁻¹.

The variants in the next series derive from B1. Description: self-cleavage kobs at 640 uM GlcN6P; higher = faster cleavage; RNA array. To be noted: with glucosamine-6-phosphate. In a few lines: as §1
Regarding G9U G29U G44A, the “self-cleavage kobs at 640 uM GlcN6P” value was less than 1e-05 s⁻¹. Turning to A42U G51A G63U, the “self-cleavage kobs at 640 uM GlcN6P” value was less than 1e-05 s⁻¹. For the variant A12C U65G C67U, the “self-cleavage kobs at 640 uM GlcN6P” value was 0.000474 ± 0.00016 s⁻¹. The same measure, in the same setting: for A36C G51A C71G the value was 6.03e-05 ± 2.2e-05 s⁻¹; for G41A U47A A52C, less than 1e-05 s⁻¹.

For the variant A12U G29U G37A U55A, the “self-cleavage kobs at 640 uM GlcN6P” value turned out to be 0.000291 ± 8.3e-05 s⁻¹. For the variant G41A G44U G66A, the “self-cleavage kobs at 640 uM GlcN6P” value was less than 1e-05 s⁻¹. On to U45C U65C G66U C68G, for which the “self-cleavage kobs at 640 uM GlcN6P” value was less than 1e-05 s⁻¹. Same read-out and setting: next, G13U U30G A48C: less than 1e-05 s⁻¹; A6G G32C G51C: less than 1e-05 s⁻¹; A15G G35C A42U C50G C68A C71U: less than 1e-05 s⁻¹. With C8A A12C A33U A64G, the “self-cleavage kobs at 640 uM GlcN6P” value is less than 1e-05 s⁻¹.

As to A14U G29A G62A U69G, the “self-cleavage kobs at 640 uM GlcN6P” value is 7.37e-05 ± 2.9e-05 s⁻¹. With A33C C61A A64U C68U, the “self-cleavage kobs at 640 uM GlcN6P” value was less than 1e-05 s⁻¹. Consider G13C G37C U45G, for which the “self-cleavage kobs at 640 uM GlcN6P” value is less than 1e-05 s⁻¹. Consider A42U U57G, for which the “self-cleavage kobs at 640 uM GlcN6P” value was less than 1e-05 s⁻¹. As for C16A C34G C68G, the “self-cleavage kobs at 640 uM GlcN6P” value is 0.000145 ± 4.7e-05 s⁻¹. Turning to A12G G59C A64U, the “self-cleavage kobs at 640 uM GlcN6P” value was less than 1e-05 s⁻¹. For the variant U54A U57A, the “self-cleavage kobs at 640 uM GlcN6P” value is 4.89e-05 ± 1.3e-05 s⁻¹. The same measure, in the same setting: next, A39G G40U C58G: less than 1e-05 s⁻¹. On the same count and under the same terms, for A15G G40A G59U C67G the value was less than 1e-05 s⁻¹; for U30G G37A A53G, 0.000102 ± 2.5e-05 s⁻¹. As for G35U C58U A64U C68A, the “self-cleavage kobs at 640 uM GlcN6P” value was less than 1e-05 s⁻¹. Regarding A12U U45A U65G, the “self-cleavage kobs at 640 uM GlcN6P” value worked out at 0.000665 ± 0.00016 s⁻¹. As to C16U U30A G44C G63C, the “self-cleavage kobs at 640 uM GlcN6P” value is less than 1e-05 s⁻¹.

On to A53U C58G C68U, for which the “self-cleavage kobs at 640 uM GlcN6P” value is 9.02e-05 ± 3.1e-05 s⁻¹. As to A1U U2G A3G C70A, the “self-cleavage kobs at 640 uM GlcN6P” value was found to be 0.000245 ± 0.00011 s⁻¹.

For the variant C10U C16A A52U, the “self-cleavage kobs at 640 uM GlcN6P” value is less than 1e-05 s⁻¹. On the same count and under the same terms, for G9C A14G G37U G62C C71A the value was less than 1e-05 s⁻¹; for G9U C10U G38U G44C U49C, less than 1e-05 s⁻¹. Consider A33U C34U A36C U69G, for which the “self-cleavage kobs at 640 uM GlcN6P” value came out at 0.000124 ± 6e-05 s⁻¹.

Take C16U A39G G66A: the “self-cleavage kobs at 640 uM GlcN6P” value turned out to be 0.00662 ± 0.0015 s⁻¹. C11G A12U G41U A53G C67G: the “self-cleavage kobs at 640 uM GlcN6P” value is less than 1e-05 s⁻¹. Take A6G A39C G63U A64U C67G: the “self-cleavage kobs at 640 uM GlcN6P” value is less than 1e-05 s⁻¹. As for A6G A36C C50G, the “self-cleavage kobs at 640 uM GlcN6P” value was 0.000132 ± 3.4e-05 s⁻¹. With C11G A14G G41A G43C, the “self-cleavage kobs at 640 uM GlcN6P” value was less than 1e-05 s⁻¹. Still for that read-out and setting: next, G32A A48U U65C: less than 1e-05 s⁻¹; A14G C58G C71A: 0.000191 ± 5.2e-05 s⁻¹. Same read-out and setting: next, A6C G35C U54A: less than 1e-05 s⁻¹; A42C G43U U56A G66U: less than 1e-05 s⁻¹; C16G A33U A52U C61U C71U: less than 1e-05 s⁻¹.

A further series covers variants of B1. The series can be described thus: self-cleavage kobs at 10000 uM GlcN6P; higher = faster cleavage; RNA array. To be noted: with glucosamine-6-phosphate. Summed up: as §1
For the variant A12C U65G C67U, the “self-cleavage kobs at 10000 uM GlcN6P” value amounted to 0.00133 ± 0.00031 s⁻¹. The same measure, in the same setting: next, G37U G40A G63A: less than 1e-05 s⁻¹; G13U U30G A48C: less than 1e-05 s⁻¹; C16A C34G C68G: 4.24e-05 ± 2e-05 s⁻¹. For the variant C16U U30A G44C G63C, the “self-cleavage kobs at 10000 uM GlcN6P” value is less than 1e-05 s⁻¹.

On to A6G A39C G63U A64U C67G, for which the “self-cleavage kobs at 10000 uM GlcN6P” value is less than 1e-05 s⁻¹.

Consider A6C G35C U54A, for which the “self-cleavage kobs at 10000 uM GlcN6P” value was less than 1e-05 s⁻¹.
